The data set deals with ATP. Nature of the data set: switch fluorescence ratio, 500 uM ATP over buffer (Cy3 cluster intensity, sum of 5 cycles each) (fold (ratio)); higher = stronger signal-on switching upon ATP binding; sequences stand for … in TCGTCGGCAGCGTCAGATGTGTATAAGAGACAGTTTTTTTTTTTTTTTTTTTTTTTTT…TC. As to conditions: aptamer strand: ATP DNA aptamer (quencher-CACCTGGGGGAGTATTGCGGAGGAAGG + anchor), 100 nM annealed; ATP concentration: 500 uM. The procedure, abridged: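 The quencher-labelled ATP aptamer, at 100 nM, was annealed to Cy3-labelled switching-strand clusters on a modified Illumina MiSeq flow-cell. The clusters were imaged in selection buffer, then after 15 min with 500 uM ATP at 22 °C, and this buffer/ATP cycle ran five times with NaOH stripping and re-annealing between runs. Per-cluster fluorescence ratios, summed target-cycle over summed buffer-cycle Cy3 intensity, were averaged per switch-domain sequence. Clusters outside 100-1000 RFU were excluded.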

± gives the standard deviation of the averaged measurements.
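Note: ATP exposure 15 min at 22 °C before imaging.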

For the sequence ATCAGGGTAT, the switch fluorescence ratio came out at 1.07 ± 0.089.
GGAGCAAAGG: the switch fluorescence ratio was 2.63 ± 0.1.
For TGTAAAAAGC, the switch fluorescence ratio stood at 1.018 ± 0.0059.
In the case of GCGCGGGGCC, the switch fluorescence ratio worked out at 0.999 ± 0.032.
To TCCCTTAGAG belongs 1.037 ± 0.0024; to AGGTTGTAAT, 1 ± 0.016.
In the case of CGGGCAAGGG, the switch fluorescence ratio was found to be 1.19 ± 0.029.
To TACTGGTTCT belongs 0.984 ± 0.064.
To GGGGGTGGGG belongs 1.01 ± 0.037; to TTTTATCTGA, 1.02 ± 0.028.
Take ATGTTAGGG: the switch fluorescence ratio is 0.98 ± 0.011.
Next, CGGTCAGTAA: 1.03 ± 0.022; CAGCATGGGG: 1.03 ± 0.017.
Next, AGTGAGGGGA: 0.975 ± 0.015.
AACCAAAAAA: the switch fluorescence ratio was 1.01 ± 0.019.
Next, TTTTTACCCG: 1.01 ± 0.013; GGATGATGGG: 1.01 ± 0.046.
In the case of AGGCACGACG, the switch fluorescence ratio is 0.9561 ± 0.0074.
Next, AATTGTTGCT: 0.99301 ± 0.00023.
On to AGGCGTATAC, for which the switch fluorescence ratio was 1.79 ± 0.18.
As for TGTAGGACGG, the switch fluorescence ratio came to 1.09 ± 0.094.
Next, TTATGGGGGA: 1.01 ± 0.018; GTATGAAATC: 1.02 ± 0.036; GCTCCGGGCG: 1.13 ± 0.075.
To ACTCGGACCG belongs 1.0425 ± 0.00055; to GGGCGTTTCA, 1.02 ± 0.02; to AGAGGGAAAC, 1.14 ± 0.3.
Next, GGGAGGTTGT: 0.966 ± 0.028; AAGCGGTGGG: 1.05 ± 0.032; AAATAGGGTG: 1.13 ± 0.18.
TCACGTTGGG: the switch fluorescence ratio was determined as 0.9989 ± 0.0094.
Next, GGAATTTGGA: 0.983 ± 0.057.
For CATTTGGGCC, the switch fluorescence ratio worked out at 0.999 ± 0.017.
To GAAGCTCCTG belongs 0.996 ± 0.0043; to ACCGGCCCGG, 0.9848 ± 0.0085.
Take CGTGGTTATG: the switch fluorescence ratio was 0.975 ± 0.06.
To CCAATGGGGG belongs 0.982 ± 0.04; to ACGGTCGGGC, 0.9775 ± 0.00067; to GGCTGTAAGT, 0.9844 ± 0.0066.
To TGTTTGTAT belongs 0.9851 ± 0.0015; to GATCGGTAAT, 1.04 ± 0.028; to TTTGGGATGC, 1.07 ± 0.095.
To GGGCTCCATG belongs 0.9825 ± 0.0044; to TTGATAAAGT, 0.997 ± 0.0043; to AACAGTTTTA, 0.972 ± 0.011.
With GCATTAGGGT, the switch fluorescence ratio stood at 1.02 ± 0.014.
Next, CTGGCTTGAC: 0.983 ± 0.0052; GTGAAATAGG: 0.981 ± 0.014.
Regarding GTGCGAGAAC, the switch fluorescence ratio was 1.01 ± 0.025.
In the case of GCCCTGGTGT, the switch fluorescence ratio is 5.93 ± 0.54.
In the case of TAAGGTAACG, the switch fluorescence ratio worked out at 1.05 ± 0.12.
For AAGGTTATTA, the switch fluorescence ratio worked out at 1 ± 0.023.
To CGATCGAGGA belongs 0.991 ± 0.036.
In the case of CGATGAGAGT, the switch fluorescence ratio was determined as 1.03 ± 0.064.
Next, TTTGGTATTT: 0.984 ± 0.025; TTAAATTTGC: 1.03 ± 0.011.
Next, AAAGAAATTA: 0.997 ± 0.042.
Next, TTTTTGTGGG: 0.993 ± 0.023; TAGGGGGCGT: 0.987 ± 0.0032.
In the case of AACTCGGTCT, the switch fluorescence ratio turned out to be 1.03 ± 0.095.
AAGAACTAAA: the switch fluorescence ratio was 1.05 ± 0.081.
Next, TGCAGTAATA: 1.53 ± 0.13.
As for CCGGGGACTG, the switch fluorescence ratio is 1.1 ± 0.033.
Turning to CCATGTCAGC, the switch fluorescence ratio stood at 1.03 ± 0.021.
Take TAATGGGGCG: the switch fluorescence ratio turned out to be 0.997 ± 0.025.
For the sequence CGTATAAAAA, the switch fluorescence ratio stood at 0.971 ± 0.068.

The record behind these values is the supplement of paper PMC10126150.
